For one data set, the target named is T1, MgGalT7 (Magallana gigas, UniProt Z9LX56G651).
T1 sequence (Z9LX56G651 34-312): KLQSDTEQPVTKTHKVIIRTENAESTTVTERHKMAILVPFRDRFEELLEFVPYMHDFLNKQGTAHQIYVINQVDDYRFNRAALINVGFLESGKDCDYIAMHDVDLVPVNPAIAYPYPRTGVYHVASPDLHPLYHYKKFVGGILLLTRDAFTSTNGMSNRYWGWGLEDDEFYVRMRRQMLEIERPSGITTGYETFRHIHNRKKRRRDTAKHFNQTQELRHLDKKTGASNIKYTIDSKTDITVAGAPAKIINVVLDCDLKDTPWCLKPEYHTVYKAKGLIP
As to the kind of experiment: coupled galactosylation with MgUGE, HPLC-ESI-MS. Conditions: acceptor 10 mM; 15 mM UDP-glucose converted to UDP-galactose by MgUGE, 1 mM MnCl2, 50 mM Tris-HCl pH 8.0, 37 °C, 24 h. It is filed as biochemical.

Substrate in the data set “purified protein”: O=c1ccn([C@@H]2O[C@H](COP(=O)(O)OP(=O)(O)O[C@H]3O[C@H](CO)[C@H](O)[C@H](O)[C@H]3O)[C@@H](O)[C@H]2O)c(=O)[nH]1
Nature of the data set: purified protein. It is filed as biochemical, Magallana gigas. To be noted: 50 mM Tris-HCl pH 8.0, 22 °C, UDP-galactose 10 µM to 2 mM.

In the case of `O=[N+]([O-])c1ccc(O[C@H]2OC[C@@H](O)[C@H](O)[C@H]2O)cc1` [pNP-xylose], the “coupled galactosylation with MgUGE, HPLC-ESI-MS” value on MgGalT7 is recorded as “(MgGalT7), allowing the galactosylation of the model substrate para-nitrophenol xylose (pNP-xylose)”.

B1: MgUGE (Magallana gigas) (protein)
chain: MGDSCILVTGGAGFVGSHSVIELIEAGYSVVVMDNLANASMESIKRVEEITGKSIPSYSVDLLDKPALSDLFNKHKFTSVIHFAGLKAVGESCQLPLLYYKNNVGGTVNLLEVMKEKGVKNLIFSSSATVYGSPQYLPIDEKHPVGGCTNPYGKTKYFIEEILRDLHKAEPDWNIIMLRYFNPVGAHKSGKIGEDPQGIPNNLMPFIAQVAVGKRAELSVYGSDYDTPDGTGVRDYIHVVDLAQGHVAAQKKIEKKCGCKVYNLGTGKGYSVIEMAKAFEEASGKPIPFKKVDRRAGDVASVYGNADLAKEELGWSASRDLKQMCEDTWRWQSSNPNGFRK
notes: forward primer encodes N-terminus MGDSCIL
As usually defined, the Km is the concentration of substrate that gives half-maximal velocity. A word on the kcat: it is the number of substrate molecules converted per active site and unit of time at saturation. For B1, in the data set “purified protein”, the Km worked out at 1600 ± 100 µM and the kcat turned out to be 2.23 ± 0.2 s⁻¹.

The values above are taken from article PMC6032241, “UDP-Glucose 4-Epimerase and β-1,4-Galactosyltransferase from the Oyster Magallana gigas as Valuable Biocatalysts for the Production of Galactosylated Products” (International Journal of Molecular Sciences, 2018).
